Results: PMC11094075

Biological target: HA-Ago2K212A, in Ago2-knockout A549 and HCC1806 cells (human) (UniProt Q9UKV8)
Experiment: co-IP; Ago2-knockout A549 and HCC1806 cells expressing HA-Ago2Wt, HA-Ago2K212A or HA-Ago2K212R; IP with anti-HA, blot for endogenous CAV1; ratio pCAV1/pHA; vehicle or TM (10 µM)

percent decrease of co-precipitated CAV1 per precipitated HA-Ago2 (pCAV1/pHA) against HA-Ago2Wt: 46%
Substance: Caveolin-1 (CAV1), endogenous (from UniProt Q03135 1-178) (natural protein)
